Source: the supplement of paper PMC9112550, “Optimization of the antimicrobial peptide Bac7 by deep mutational scanning” (BMC Biology, 2022)
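Note: peptides expressed intracellularly from a pBAD plasmid library in pooled LB shake-flask culture, induced with 0.3% L-arabinose, DNA abundance read by NGS, three biological replicates, DESeq2 with apeglm shrinkage.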

The sequences below were run on Escherichia coli TOP10 (assay: shrunken log2 fold change of peptide-encoding DNA abundance (4.5 h post-induction vs induction); higher = less antimicrobial activity (less host growth inhibition)). Conditions: time post-induction: 4.5 h; library: site-saturation at positions 5, 18, 19, 20.
RRIRMRPPRLPRPRPRPFMFPRP was tested, and the “shrunken log2 fold change” value was 0.0892. RRIRMRPPRLPRPRPRPFNCPRP was tested, and the “shrunken log2 fold change” value was -0.643. RRIRMRPPRLPRPRPRPFNHPRP was tested, and the “shrunken log2 fold change” value was -0.367. In the case of RRIRMRPPRLPRPRPRPFPIPRP, the “shrunken log2 fold change” value was 0.0281. For RRIRMRPPRLPRPRPRPFPRPRP, the “shrunken log2 fold change” value was -0.0223. With RRIRMRPPRLPRPRPRPFPSPRP the “shrunken log2 fold change” value was -0.18. RRIRMRPPRLPRPRPRPFQKPRP was tested, and the “shrunken log2 fold change” value was -0.00623. In the case of RRIRMRPPRLPRPRPRPFRGPRP, the “shrunken log2 fold change” value was -0.205. With RRIRMRPPRLPRPRPRPFVHPRP the “shrunken log2 fold change” value was -0.178. With RRIRMRPPRLPRPRPRPFVMPRP the “shrunken log2 fold change” value was -0.0957. With RRIRMRPPRLPRPRPRPFWSPRP the “shrunken log2 fold change” value was -0.123. RRIRMRPPRLPRPRPRPGAAPRP was tested, and the “shrunken log2 fold change” value was 2.24. RRIRMRPPRLPRPRPRPGAEPRP was tested, and the “shrunken log2 fold change” value was 3.05. For RRIRMRPPRLPRPRPRPGAQPRP, the “shrunken log2 fold change” value was 1.24. For RRIRMRPPRLPRPRPRPGAVPRP, the “shrunken log2 fold change” value was 0.873. With RRIRMRPPRLPRPRPRPGDRPRP the “shrunken log2 fold change” value was 0.786. In the case of RRIRMRPPRLPRPRPRPGEHPRP, the “shrunken log2 fold change” value was 0.987. RRIRMRPPRLPRPRPRPGENPRP was tested, and the “shrunken log2 fold change” value was 0.00897. For RRIRMRPPRLPRPRPRPGEYPRP, the “shrunken log2 fold change” value was 0.434. RRIRMRPPRLPRPRPRPGGEPRP was tested, and the “shrunken log2 fold change” value was 1. In the case of RRIRMRPPRLPRPRPRPGHPPRP, the “shrunken log2 fold change” value was 0.196. For RRIRMRPPRLPRPRPRPGHRPRP, the “shrunken log2 fold change” value was 1.35. With RRIRMRPPRLPRPRPRPGLPPRP the “shrunken log2 fold change” value was 0.955. In the case of RRIRMRPPRLPRPRPRPGMDPRP, the “shrunken log2 fold change” value was 0.32. In the case of RRIRMRPPRLPRPRPRPGMLPRP, the “shrunken log2 fold change” value was -0.0146. With RRIRMRPPRLPRPRPRPGNKPRP the “shrunken log2 fold change” value was -0.0821. For RRIRMRPPRLPRPRPRPGNMPRP, the “shrunken log2 fold change” value was -0.331. For RRIRMRPPRLPRPRPRPGNSPRP, the “shrunken log2 fold change” value was -0.616. For RRIRMRPPRLPRPRPRPGQTPRP, the “shrunken log2 fold change” value was -0.00931. In the case of RRIRMRPPRLPRPRPRPGRIPRP, the “shrunken log2 fold change” value was 0.0372. RRIRMRPPRLPRPRPRPGRMPRP was tested, and the “shrunken log2 fold change” value was 0.993. In the case of RRIRMRPPRLPRPRPRPGSRPRP, the “shrunken log2 fold change” value was 0.991. With RRIRMRPPRLPRPRPRPGWMPRP the “shrunken log2 fold change” value was 0.622. With RRIRMRPPRLPRPRPRPGYIPRP the “shrunken log2 fold change” value was -0.0175. In the case of RRIRMRPPRLPRPRPRPGYKPRP, the “shrunken log2 fold change” value was -0.517. With RRIRMRPPRLPRPRPRPHAAPRP the “shrunken log2 fold change” value was 1.63. RRIRMRPPRLPRPRPRPHCAPRP was tested, and the “shrunken log2 fold change” value was 1.76. With RRIRMRPPRLPRPRPRPHCKPRP the “shrunken log2 fold change” value was 0.00214. For RRIRMRPPRLPRPRPRPHEPPRP, the “shrunken log2 fold change” value was -0.0151. With RRIRMRPPRLPRPRPRPHFPPRP the “shrunken log2 fold change” value was -0.106. With RRIRMRPPRLPRPRPRPHFYPRP the “shrunken log2 fold change” value was -0.115. With RRIRMRPPRLPRPRPRPHGLPRP the “shrunken log2 fold change” value was 0.0212. In the case of RRIRMRPPRLPRPRPRPHGRPRP, the “shrunken log2 fold change” value was -0.0383. For RRIRMRPPRLPRPRPRPHHEPRP, the “shrunken log2 fold change” value was -0.00212. With RRIRMRPPRLPRPRPRPHHHPRP the “shrunken log2 fold change” value was -0.412. With RRIRMRPPRLPRPRPRPHHQPRP the “shrunken log2 fold change” value was -0.526. With RRIRMRPPRLPRPRPRPHINPRP the “shrunken log2 fold change” value was -0.339. In the case of RRIRMRPPRLPRPRPRPHKFPRP, the “shrunken log2 fold change” value was 0.0123. For RRIRMRPPRLPRPRPRPHKIPRP, the “shrunken log2 fold change” value was -0.188. In the case of RRIRMRPPRLPRPRPRPHLSPRP, the “shrunken log2 fold change” value was -0.0805. With RRIRMRPPRLPRPRPRPHMAPRP the “shrunken log2 fold change” value was 0.0168. RRIRMRPPRLPRPRPRPHMPPRP was tested, and the “shrunken log2 fold change” value was -0.206. RRIRMRPPRLPRPRPRPHQCPRP was tested, and the “shrunken log2 fold change” value was -0.0247. In the case of RRIRMRPPRLPRPRPRPHSWPRP, the “shrunken log2 fold change” value was 0.273. For RRIRMRPPRLPRPRPRPHTIPRP, the “shrunken log2 fold change” value was 0.0593. In the case of RRIRMRPPRLPRPRPRPHWIPRP, the “shrunken log2 fold change” value was -0.0869. RRIRMRPPRLPRPRPRPHYYPRP was tested, and the “shrunken log2 fold change” value was -0.061. In the case of RRIRMRPPRLPRPRPRPIACPRP, the “shrunken log2 fold change” value was 0.106. RRIRMRPPRLPRPRPRPIALPRP was tested, and the “shrunken log2 fold change” value was 0.0271. With RRIRMRPPRLPRPRPRPIANPRP the “shrunken log2 fold change” value was 0.333. For RRIRMRPPRLPRPRPRPIAPPRP, the “shrunken log2 fold change” value was 0.47. With RRIRMRPPRLPRPRPRPIARPRP the “shrunken log2 fold change” value was 0.184. With RRIRMRPPRLPRPRPRPIASPRP the “shrunken log2 fold change” value was 0.0465. For RRIRMRPPRLPRPRPRPICSPRP, the “shrunken log2 fold change” value was 0.241. For RRIRMRPPRLPRPRPRPIDDPRP, the “shrunken log2 fold change” value was -0.0846. In the case of RRIRMRPPRLPRPRPRPIDLPRP, the “shrunken log2 fold change” value was -0.00804. For RRIRMRPPRLPRPRPRPIDYPRP, the “shrunken log2 fold change” value was -0.0477. RRIRMRPPRLPRPRPRPIEEPRP was tested, and the “shrunken log2 fold change” value was 0.278. RRIRMRPPRLPRPRPRPIEFPRP was tested, and the “shrunken log2 fold change” value was 0.103. For RRIRMRPPRLPRPRPRPIEYPRP, the “shrunken log2 fold change” value was 0.048. With RRIRMRPPRLPRPRPRPIFAPRP the “shrunken log2 fold change” value was 0.556. With RRIRMRPPRLPRPRPRPIGLPRP the “shrunken log2 fold change” value was -0.062. For RRIRMRPPRLPRPRPRPIGTPRP, the “shrunken log2 fold change” value was 0.403. RRIRMRPPRLPRPRPRPIHGPRP was tested, and the “shrunken log2 fold change” value was 0.0579. For RRIRMRPPRLPRPRPRPIHHPRP, the “shrunken log2 fold change” value was -0.724.
